Measurements from article PMC6376029, “Diversity within the adenovirus fiber knob hypervariable loops influences primary receptor interactions” (Nature Communications, 2019).

How the values were obtained:
[1] = target: HAdV-D48 fiber-knob protein (human adenovirus D serotype 48); assay: crystal structure; sitting-drop vapour diffusion, 18 C, protein about 7.5 mg/ml in 10 mM Tris pH 8.0, 30 mM NaCl; data at 100 K, Diamond I04
[2] = target: Recombinant Human CXADR Fc Chimera Protein (CAR) (human) (UniProt P78310); assay: SPR; BIAcore 3000, CM5 chip, about 5000 RU of receptor (CD46, CAR or DSG2) amine-coupled; fiber-knob injected; single cycle kinetics, top concentration around 200 uM with four 1:3 dilutions; 25 C, PBS, 30 ul/min
[3] = target: Recombinant Human Desmoglein-2 Fc Chimera Protein (human) (UniProt Q14126); assay: SPR; BIAcore 3000, CM5 chip, about 5000 RU of receptor amine-coupled; equilibrium binding analysis of HAdV-D26K (367 uM) and HAdV-B3K (3 uM as printed), 5x 1:3 serial dilutions; 1:1 Langmuir fit; 25 C, PBS, 30 ul/min
[4] = target: HAdV-D26 fiber-knob protein (human adenovirus D serotype 26); assay: crystal structure; sitting-drop vapour diffusion, 18 C, protein about 7.5 mg/ml in 10 mM Tris pH 8.0, 30 mM NaCl; data at 100 K, Diamond I04
[5] = target: Recombinant Human CD46 Protein (His Tag) (human) (UniProt P15529); assay: SPR; BIAcore 3000, CM5 chip, about 5000 RU of receptor amine-coupled; equilibrium binding analysis of HAdV-D26K (367 uM) and HAdV-B3K (3 uM as printed), 5x 1:3 serial dilutions; 1:1 Langmuir fit; 25 C, PBS, 30 ul/min
[6] = target: T1, Recombinant Human CXADR Fc Chimera Protein (CAR) (human, UniProt P78310); assay: SPR
T1 chain: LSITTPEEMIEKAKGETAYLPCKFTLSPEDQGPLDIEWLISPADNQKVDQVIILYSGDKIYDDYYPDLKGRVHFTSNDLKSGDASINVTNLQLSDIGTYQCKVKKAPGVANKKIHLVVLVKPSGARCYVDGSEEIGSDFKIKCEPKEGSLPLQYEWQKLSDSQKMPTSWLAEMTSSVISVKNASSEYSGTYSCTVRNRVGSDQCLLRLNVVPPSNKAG

[7] = target: T1, Recombinant Human CXADR Fc Chimera …; assay: SPR
[8] = target: T2, Recombinant Human CD46 Protein (His Tag) (human, UniProt P15529 35-343); assay: SPR
T2 chain: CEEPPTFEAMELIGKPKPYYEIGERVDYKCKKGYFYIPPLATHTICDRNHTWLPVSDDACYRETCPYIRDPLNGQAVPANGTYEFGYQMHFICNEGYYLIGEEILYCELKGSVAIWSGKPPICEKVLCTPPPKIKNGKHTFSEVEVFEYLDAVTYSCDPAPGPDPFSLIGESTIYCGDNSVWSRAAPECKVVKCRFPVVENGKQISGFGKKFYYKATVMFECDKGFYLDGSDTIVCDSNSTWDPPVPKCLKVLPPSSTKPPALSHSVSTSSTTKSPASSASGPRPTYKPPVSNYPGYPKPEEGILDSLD

[9] = target: T2, Recombinant Human CD46 Protein (His Tag); assay: SPR
[10] = target: T3, Recombinant Human CXADR Fc Chimera Protein (CAR) (human, UniProt P78310); assay: SPR; BIAcore 3000, CM5 chip, about 5000 RU of receptor (CD46, CAR or DSG2) amine-coupled; fiber-knob injected; single cycle kinetics, top concentration around 200 uM with four 1:3 dilutions; 25 C, PBS, 30 ul/min; settings: both partners purified
T3 construct: human Coxsackie and Adenovirus Receptor (CXADR) part of a commercial Fc chimera; Probably the extracellular domain fused to human IgG1 Fc (recalled); source: bought: R&D Systems
T3 sequence: T1 chain

Sequence of Recombinant Human Desmoglein-2 Fc Chimera Protein (human) (Q14126 50-609, stated change not applied): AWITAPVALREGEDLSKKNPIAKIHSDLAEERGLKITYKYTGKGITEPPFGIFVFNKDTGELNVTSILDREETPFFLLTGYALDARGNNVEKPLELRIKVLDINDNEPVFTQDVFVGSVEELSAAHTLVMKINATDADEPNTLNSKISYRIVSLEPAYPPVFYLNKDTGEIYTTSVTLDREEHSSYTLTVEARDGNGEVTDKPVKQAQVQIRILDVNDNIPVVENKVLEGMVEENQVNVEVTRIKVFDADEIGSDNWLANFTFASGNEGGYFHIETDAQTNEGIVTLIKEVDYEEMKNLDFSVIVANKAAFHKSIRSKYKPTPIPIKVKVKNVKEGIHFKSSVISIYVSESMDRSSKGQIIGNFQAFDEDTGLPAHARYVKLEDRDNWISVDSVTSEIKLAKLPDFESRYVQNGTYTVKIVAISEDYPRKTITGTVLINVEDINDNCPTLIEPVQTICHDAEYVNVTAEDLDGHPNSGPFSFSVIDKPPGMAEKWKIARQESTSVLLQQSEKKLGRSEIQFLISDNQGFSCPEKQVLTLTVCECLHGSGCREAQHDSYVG

“HAdV-D48 fiber-knob protein (domain or fragment)” was tested, and the stoichiometry N [1] was 3 and the fold higher affinity than HAdV-D26K [2] was 2 fold.

“HAdV-B3 fiber-knob protein (from UniProt P04501 1-319) (domain or fragment)” showed a Kd [3] of 66.9 µM.

With “HAdV-D26 fiber-knob protein (domain or fragment)” the stoichiometry N [4] was 3 and the fold weaker affinity (KD) than HAdV-B35K [5] was > 1500 fold.

B1: HAdV-D26 fiber-knob protein (domain or fragment)
chain: RRTLWTTPDTSPNCKMSTEKDSKLTLTLTKCGSQVLGNVSLLAVTGEYHQMTATTKKDVKISLLFDENGILLPSSSLSKDYWNYRSDDSIVSQKYNNAVPFMPNLTAYPKPSAQNAKNYSRTKIISNVYLGALTYQPVIITIAFNQETENGCAYSITFTFTWQKDYSAQQFDVTSFTFSYLTQE
B1 showed a Kd [6] of 21 µM.

B2: HAdV-D48 fiber-knob protein (domain or fragment)
chain: DKLTLWTTPDPSPNCKIDQDKDSKLTFVLTKCGSQILANMSLLVVKGKFSMINNKVNGTDDYKKFTIKLLFDEKGVLLKDSSLDKEYWNYRSNNNNVGSAYEEAVGFMPSTTAYPKPPTPPTNPTTPLEKSQAKNKYVSNVYLGGQAGNPVATTVSFNKETGCTYSITFDFAWNKTYENVQFDSSFLTFSYIAQE
In the case of B2, the koff [7] is reported as 0.0024 s⁻¹ and the Kd [6] is reported as 9.3 µM.

B3: HAdV-B35 fiber-knob protein (domain or fragment)
chain: TLWTGINPPPNCQIVENTNTNDGKLTLVLVKNGGLVNGYVSLVGVSDTVNQMFTQKTANIQLRLYFDSSGNLLTEESDLKIPLKNKSSTATSETVASSKAFMPSTTAYPFNTTTRDSENYIHGICYYMTSYDRSLFPLNISIMLNSRMISSNVAYAIQFEWNLNASESPESNIATLTTSPFFFSYITEDDN
In the case of B3, the Kd [8] is reported as 27 nM and the koff [9] is reported as 0.032 s⁻¹.

B4: HAdV-C5 fiber-knob protein (domain or fragment)
chain: KNNDKLTLWTTPAPSPNCRLNAEKDAKLTLVLTKCGSQILATVSVLAVKGSLAPISGTVQSAHLIIRFDENGVLLNNSFLDPEYWNFRNGDLTEGTAYTNAVGFMPNLSAYPKSHGKTAKSNIVSQVYLNGDKTKPVTLTITLNGTQETGDTTPSAYSMSFSWDWSGHNYINEIFATSSYTFSYIAQE
notes: fiber-knob domain of the fiber protein (pIV) of human adenovirus species C serotype 5; Vector pQE-30 probably adds an N-terminal His6 tag (surmised); also called HAdV-C5K; HAdV-C5 fiber-knob domain
B4 gave a koff [7] of 0.0016 s⁻¹ and a Kd [10] of 0.76 nM.
